Data from the Immune Epitope Database (IEDB).

Assays:
HLA-A*26:01 [1] = assay: IEDB peptide-MHC binding, purified MHC/competitive/radioactivity; filed as Kd, often an IC50 or EC50 that approximates it; ≥ and ≤ were set here for values at or beyond the usual limits of such assays
HLA-A*30:02 = assay: as above
HLA-A*29:02 = assay: as above
HLA-A*24:02 = assay: as above
HLA-A*23:01 = assay: as above
HLA-A*01:01 [2] = assay: as above
HLA-B*44:02 = assay: as above
HLA-B*44:03 = assay: as above
HLA-B*53:01 = assay: as above
HLA-A*30:01 = assay: as above; conditions: source organism: Dengue virus 3 Martinique/1243/1999
HLA-B*40:01 = assay: as above
HLA-A*26:01 [3] = assay: IEDB peptide-MHC binding, purified MHC/direct/fluorescence; filed as Kd, often an IC50 or EC50 that approximates it; ≥ and ≤ were set here for values at or beyond the usual limits of such assays; conditions: source organism: Mycobacterium tuberculosis
HLA-B*15:01 = assay: as above; conditions: source organism: Mammarenavirus lassaense
HLA-A*11:01 = assay: as above; conditions: source organism: SARS-CoV1
HLA-B*58:01 = assay: as above; conditions: source organism: SARS-CoV1
HLA-A*03:01 = assay: as above; conditions: source organism: SARS-CoV1
HLA-A*01:01 [4] = assay: as above; conditions: source organism: SARS-CoV1
[5] = source organism: SARS coronavirus Tor2
[6] = source organism: Lymphocytic choriomeningitis virus (strain Armstrong)
[7] = source organism: Dengue virus 1 Singapore/S275/1990
[8] = source organism: Dengue virus 2 Jamaica/1409/1983
[9] = source organism: Dengue virus 1 Brazil/97-11/1997
[10] = source organism: Mammarenavirus lassaense
[11] = source organism: Mammarenavirus whitewaterense
[12] = source organism: Dengue virus 4 Philippines/H241/1956
[13] = source organism: Mammarenavirus juninense
[14] = source organism: Dengue virus 3 Martinique/1243/1999
[15] = source organism: Mammarenavirus guanaritoense

Sequence: AWEILKFLI
- Kd (HLA-A*26:01 [1]; [5]): ≥ 57 µM
- Kd (HLA-A*30:02; [5]): ≥ 25300 nM
- Kd (HLA-A*29:02; [5]): 4100 nM
- Kd (HLA-A*24:02; [5]): 2960 nM
- Kd (HLA-A*23:01; [5]): 3630 nM
- Kd (HLA-A*01:01 [2]; [5]): ≥ 78.1 µM

Sequence: SLSLISHVV
- Kd (HLA-A*26:01 [1]; [6]): ≥ 77.9 µM
- Kd (HLA-A*30:02; [6]): 1440 nM
- Kd (HLA-A*29:02; [6]): ≥ 60400 nM
- Kd (HLA-A*24:02; [6]): ≥ 77500 nM
- Kd (HLA-A*23:01; [6]): ≥ 77700 nM
- Kd (HLA-A*01:01 [2]; [6]): ≥ 44.7 µM

Sequence: LMANLAPHL
- Kd (HLA-A*26:01 [1]; [5]): ≥ 77.9 µM
- Kd (HLA-A*30:02; [5]): 12000 nM
- Kd (HLA-A*29:02; [5]): 3650 nM
- Kd (HLA-A*24:02; [5]): ≥ 31200 nM
- Kd (HLA-A*23:01; [5]): 11800 nM
- Kd (HLA-A*01:01 [2]; [5]): 6.08 µM

Sequence: AQIMEVTARW
- Kd (HLA-B*44:02; [7]): 156 nM
- Kd (HLA-B*44:03; [7]): 104 nM

Sequence: SYTQVCDHRL
- Kd (HLA-A*24:02; source organism: Dengue virus 1 Nauru/West Pac/1974): 930 nM

Sequence: LIGLTSRATW
- Kd (HLA-B*53:01; [8]): 459 nM

Sequence: ITEAELTGY
- Kd (HLA-A*26:01 [1]; [8]): 8.27 µM
- Kd (HLA-A*30:02; [8]): 9.47 nM

Sequence: YVVIGLLFM
- Kd (HLA-A*26:01 [1]; [9]): 12.5 µM

Sequence: LTALRLCAY
- Kd (HLA-A*26:01 [1]; [5]): 0.961 µM
- Kd (HLA-A*30:02; [5]): 54.5 nM
- Kd (HLA-A*29:02; [5]): 136 nM
- Kd (HLA-A*24:02; [5]): ≥ 35300 nM
- Kd (HLA-A*23:01; [5]): 7110 nM
- Kd (HLA-A*01:01 [2]; [5]): 0.00786 µM

Sequence: PATLFVWYF
- Kd (HLA-B*53:01; [9]): 1890 nM

Sequence: VEIALYQPI
- Kd (HLA-A*26:01 [1]; [10]): ≥ 77.9 µM
- Kd (HLA-A*30:02; [10]): ≥ 40100 nM
- Kd (HLA-A*29:02; [10]): ≥ 78900 nM
- Kd (HLA-A*24:02; [10]): ≥ 38000 nM
- Kd (HLA-A*23:01; [10]): 1480 nM
- Kd (HLA-A*01:01 [2]; [10]): ≥ 78.1 µM

Sequence: IYQPESQKF
- Kd (HLA-A*29:02; [11]): 412 nM
- Kd (HLA-A*24:02; [11]): 33.5 nM
- Kd (HLA-A*23:01; [11]): 53.4 nM

Sequence: HETGRLEPSW
- Kd (HLA-B*44:02; [12]): ≥ 70200 nM
- Kd (HLA-B*44:03; [12]): 188 nM

Sequence: LYKLMGHFSW
- Kd (HLA-A*26:01 [1]; [5]): ≥ 20 µM
- Kd (HLA-A*30:02; [5]): 17100 nM
- Kd (HLA-A*29:02; [5]): 8090 nM
- Kd (HLA-A*24:02; [5]): 83.1 nM
- Kd (HLA-A*23:01; [5]): 89.6 nM
- Kd (HLA-A*01:01 [2]; [5]): 18.4 µM

Sequence: KEGTFHTMW
- Kd (HLA-B*44:02; [8]): 102 nM
- Kd (HLA-B*44:03; [8]): 47 nM

Sequence: LYIKDIFTR
- Kd (HLA-A*26:01 [1]; [13]): ≥ 77.9 µM
- Kd (HLA-A*30:02; [13]): ≥ 76900 nM
- Kd (HLA-A*01:01 [2]; [13]): ≥ 78.1 µM

Sequence: EEFLDYMPSM
- Kd (HLA-A*30:01): 2290 nM
- Kd (HLA-B*40:01; [14]): 142 nM
- Kd (HLA-B*44:03; [14]): 70.8 nM

Sequence: FVTLITGNM
- Kd (HLA-A*26:01 [1]; [8]): 1.39 µM

Sequence: AECPNTNRAW
- Kd (HLA-B*44:02; [8]): 35.6 nM
- Kd (HLA-B*44:03; [8]): 53 nM

Sequence: FIDTIKSLDY
- Kd (HLA-A*26:01 [1]; [5]): ≥ 24.9 µM
- Kd (HLA-A*30:02; [5]): 4390 nM
- Kd (HLA-A*29:02; [5]): 506 nM
- Kd (HLA-A*24:02; [5]): ≥ 70300 nM
- Kd (HLA-A*23:01; [5]): ≥ 70000 nM
- Kd (HLA-A*01:01 [2]; [5]): 0.458 µM

Sequence: LTDGEERVIL
- Kd (HLA-A*01:01 [2]; [8]): ≥ 23.6 µM

Sequence: VTTLGLPFY
- Kd (HLA-A*26:01 [3]): 13 µM

Sequence: MSPALFHAFF
- Kd (HLA-A*29:02; [15]): 513 nM
- Kd (HLA-A*24:02; [15]): 122 nM
- Kd (HLA-A*23:01; [15]): 148 nM

Sequence: LTLTAAVLML
- Kd (HLA-A*01:01 [2]; [9]): 6.16 µM

Sequence: ESVKTQFNY
- Kd (HLA-A*26:01 [1]; [5]): 0.902 µM
- Kd (HLA-A*30:02; [5]): 505 nM
- Kd (HLA-A*29:02; [5]): 31.2 nM
- Kd (HLA-A*24:02; [5]): ≥ 77600 nM
- Kd (HLA-A*23:01; [5]): ≥ 77800 nM
- Kd (HLA-A*01:01 [2]; [5]): 2.61 µM

Sequence: QENPYRTWAY
- Kd (HLA-B*44:02; [12]): 7.66 nM
- Kd (HLA-B*40:01; [12]): 1600 nM
- Kd (HLA-B*44:03; [12]): 8.86 nM

Sequence: KEENMVKSLV
- Kd (HLA-B*40:01; [14]): 243 nM

Sequence: HERGRPLLF
- Kd (HLA-B*44:03; [12]): 1000 nM

Sequence: QPSKGWHDW
- Kd (HLA-B*53:01; [14]): 207 nM

Sequence: PYLGKREDLW
- Kd (HLA-A*24:02; [12]): 1620 nM
- Kd (HLA-A*23:01; [12]): 505 nM

Sequence: IQNKLSSTF
- Kd (HLA-A*29:02; [10]): ≥ 35000 nM
- Kd (HLA-A*24:02; [10]): 272 nM
- Kd (HLA-A*23:01; [10]): 345 nM
- Kd (HLA-B*15:01): 24 nM

Sequence: GEKALKLSW
- Kd (HLA-B*44:02; [9]): 39.7 nM
- Kd (HLA-B*44:03; [9]): 40.2 nM

Sequence: RYNLDPDTI
- Kd (HLA-A*29:02; [15]): ≥ 40600 nM
- Kd (HLA-A*24:02; [15]): 2970 nM
- Kd (HLA-A*23:01; [15]): 6790 nM

Sequence: EPSKGWKNW
- Kd (HLA-B*53:01; [12]): 608 nM

Sequence: EVSTAIAAL
- Kd (HLA-A*26:01 [3]): 0.0122 µM

Sequence: GTDSGFAAY
- Kd (HLA-A*26:01 [1]; [5]): 2.35 µM
- Kd (HLA-A*30:02; [5]): 15.7 nM
- Kd (HLA-A*29:02; [5]): 52.9 nM
- Kd (HLA-A*24:02; [5]): ≥ 77600 nM
- Kd (HLA-A*23:01; [5]): ≥ 77800 nM
- Kd (HLA-A*11:01): 103 nM
- Kd (HLA-B*58:01): 11.6 µM
- Kd (HLA-A*03:01): 714 nM
- Kd (HLA-A*01:01 [4]): 13 nM

Sequence: NEMGLIEKT
- Kd (HLA-B*44:03; [12]): 2000 nM
